The values below come from patent US20200157180A1 (JIANGSU HENGRUI MEDICINE, published 2020).

Experiment [1] concerns the target human PD-L1 on CHO/PD-L1 cells (human, UniProt Q9NZQ7 19-290). The experiment can be described thus: cell-based or functional assay.
The target in experiment [2] is T1, human TGF-β1 (human, UniProt P01137 279-390).
T1 construct: Bought protein
Put plainly: ELISA, coated human TGF-β1 1 µg/ml, anti-human Fc-HRP, OD450. The protocol: a. 96-well plates were coated with 100 μl/well of human TGF-β1 (8915LC, CST) at a concentration of 1 μg/ml at 4° C. overnight.
d. The wells were washed 3 times with 250 μl 1×PBST, e. 100 μl of Anti-human Fc antibody-HRP (1:4000) was added to each well and incubated for 40 minutes at 37° C.

For experiment [3], the target named is T1, human TGF-β1. Put plainly: cell-based or functional assay.

T1 sequence (P01137 279-390 limits assumed): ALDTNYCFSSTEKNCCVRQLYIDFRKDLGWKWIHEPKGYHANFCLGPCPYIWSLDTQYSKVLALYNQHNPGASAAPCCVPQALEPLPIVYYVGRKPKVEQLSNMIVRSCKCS
Chain of human PD-L1 on CHO/PD-L1 cells (Q9NZQ7 19-290): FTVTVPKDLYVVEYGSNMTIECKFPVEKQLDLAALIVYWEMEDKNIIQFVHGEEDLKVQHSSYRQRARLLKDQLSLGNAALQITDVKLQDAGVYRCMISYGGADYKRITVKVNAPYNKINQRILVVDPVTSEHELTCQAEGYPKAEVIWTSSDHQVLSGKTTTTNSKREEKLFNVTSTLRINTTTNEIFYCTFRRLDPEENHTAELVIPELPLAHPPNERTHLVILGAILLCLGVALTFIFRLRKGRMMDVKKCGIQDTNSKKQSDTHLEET

B1: PD-L1 antibody (antibody, human IgG4 S228P, kappa, F234A L235A, V domains shown)
VH: QVQLVQSGAEVKKPGASVKVSCKASGYTFTSYWMHWVRQAPGQGLEWMGRIGPNSGFTSYNEKFKNRVTMTRDTSTSTVYMELSSLRSEDTAVYYCARGGSSYDYFDYWGQGTTVTVSS
VL: DIVLTQSPASLAVSPGQRATITCRASESVSIHGTHLMHWYQQKPGQPPKLLIYAASNLESGVPARFSGSGSGTDFTLTINPVEAEDTANYYCQQSFEDPLTFGQGTKLEIKR
notes: Humanized IgG4 with S228P, F234A, L235A; last heavy chain residue K mutated to A; also called anti-PD-L1 antibody; PD-L1 antibody heavy chain: IgG4(AA)(S228P)
For B1, the “EC50 (read off the curve)” value in experiment [1] was ~0.3 nM. In addition, in experiment [2], the binding result is “no binding (tested: Log(pM) 6 (10^6 pM))”. Also, in experiment [3], the “IC50, TGFβ-induced pSMAD3 reporter (luciferase) activity in HepG2 cells” value was > 500 nM.
